Laboratory results taken from US20200123260A1.

Tests used:
Experiment in all cases: cell-based or functional assay
[1] = target: hTrkB-a isoform fused to a small peptide epitope, in U2OS cells (Discoverx Pathhunter) (human) (UniProt Q16620)
[2] = target: hTrkA in the SHC1 recruitment assay (U2OS, Discoverx Pathhunter) (human) (UniProt P04629)
[3] = target: hTrkC in the SHC1 recruitment assay (U2OS, Discoverx Pathhunter) (human) (UniProt Q16288)
Chain of hTrkC in the SHC1 recruitment assay (U2OS, Discoverx Pathhunter) (human) (Q16288 32-839): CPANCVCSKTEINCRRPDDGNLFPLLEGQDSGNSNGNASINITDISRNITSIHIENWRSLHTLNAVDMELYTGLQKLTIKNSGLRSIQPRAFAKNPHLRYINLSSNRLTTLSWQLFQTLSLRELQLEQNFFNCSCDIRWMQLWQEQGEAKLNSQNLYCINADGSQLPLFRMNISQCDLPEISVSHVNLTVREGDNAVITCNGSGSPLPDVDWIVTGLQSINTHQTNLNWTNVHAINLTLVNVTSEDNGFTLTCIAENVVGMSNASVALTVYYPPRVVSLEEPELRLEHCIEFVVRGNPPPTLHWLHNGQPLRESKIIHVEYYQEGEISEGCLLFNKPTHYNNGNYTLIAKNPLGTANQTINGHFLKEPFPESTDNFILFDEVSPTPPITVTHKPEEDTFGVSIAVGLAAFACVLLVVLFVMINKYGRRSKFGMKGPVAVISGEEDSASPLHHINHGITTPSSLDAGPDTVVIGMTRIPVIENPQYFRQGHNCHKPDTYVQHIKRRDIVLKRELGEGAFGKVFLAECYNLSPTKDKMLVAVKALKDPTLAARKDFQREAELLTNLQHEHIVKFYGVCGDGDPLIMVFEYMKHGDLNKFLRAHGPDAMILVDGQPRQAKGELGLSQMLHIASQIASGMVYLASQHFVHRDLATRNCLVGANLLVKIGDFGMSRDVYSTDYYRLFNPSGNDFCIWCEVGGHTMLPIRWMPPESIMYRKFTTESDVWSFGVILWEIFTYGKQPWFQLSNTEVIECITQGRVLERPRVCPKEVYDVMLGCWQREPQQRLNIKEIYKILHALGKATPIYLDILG

Chain of hTrkB-a isoform fused to a small peptide epitope, in U2OS cells (Discoverx Pathhunter) (human) (Q16620 32-822): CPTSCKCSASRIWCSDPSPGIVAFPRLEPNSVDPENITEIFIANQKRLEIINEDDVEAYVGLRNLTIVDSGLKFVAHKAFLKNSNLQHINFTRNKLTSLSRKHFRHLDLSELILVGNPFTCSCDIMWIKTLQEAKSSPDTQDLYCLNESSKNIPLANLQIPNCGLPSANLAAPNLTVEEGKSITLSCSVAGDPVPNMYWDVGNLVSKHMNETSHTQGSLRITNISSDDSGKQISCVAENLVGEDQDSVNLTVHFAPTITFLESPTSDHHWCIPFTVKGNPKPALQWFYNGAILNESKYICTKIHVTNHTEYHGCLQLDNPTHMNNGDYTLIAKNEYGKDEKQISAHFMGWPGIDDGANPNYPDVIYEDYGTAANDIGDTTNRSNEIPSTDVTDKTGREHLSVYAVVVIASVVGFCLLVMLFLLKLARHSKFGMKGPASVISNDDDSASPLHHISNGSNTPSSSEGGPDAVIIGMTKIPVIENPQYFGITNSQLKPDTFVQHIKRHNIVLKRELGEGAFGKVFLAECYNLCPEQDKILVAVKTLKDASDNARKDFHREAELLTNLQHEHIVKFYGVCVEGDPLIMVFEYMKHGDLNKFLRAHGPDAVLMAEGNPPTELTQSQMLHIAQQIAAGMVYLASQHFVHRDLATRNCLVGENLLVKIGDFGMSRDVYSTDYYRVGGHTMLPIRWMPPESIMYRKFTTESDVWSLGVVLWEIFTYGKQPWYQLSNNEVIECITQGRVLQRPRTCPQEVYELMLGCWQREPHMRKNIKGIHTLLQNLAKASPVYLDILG
Chain of NGF (R&D 256GF) (ligand) (P01138 122-241): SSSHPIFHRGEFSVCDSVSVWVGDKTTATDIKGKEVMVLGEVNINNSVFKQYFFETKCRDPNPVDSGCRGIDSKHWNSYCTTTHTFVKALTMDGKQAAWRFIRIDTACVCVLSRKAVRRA
Chain of hTrkA in the SHC1 recruitment assay (U2OS, Discoverx Pathhunter) (human) (P04629 33-796): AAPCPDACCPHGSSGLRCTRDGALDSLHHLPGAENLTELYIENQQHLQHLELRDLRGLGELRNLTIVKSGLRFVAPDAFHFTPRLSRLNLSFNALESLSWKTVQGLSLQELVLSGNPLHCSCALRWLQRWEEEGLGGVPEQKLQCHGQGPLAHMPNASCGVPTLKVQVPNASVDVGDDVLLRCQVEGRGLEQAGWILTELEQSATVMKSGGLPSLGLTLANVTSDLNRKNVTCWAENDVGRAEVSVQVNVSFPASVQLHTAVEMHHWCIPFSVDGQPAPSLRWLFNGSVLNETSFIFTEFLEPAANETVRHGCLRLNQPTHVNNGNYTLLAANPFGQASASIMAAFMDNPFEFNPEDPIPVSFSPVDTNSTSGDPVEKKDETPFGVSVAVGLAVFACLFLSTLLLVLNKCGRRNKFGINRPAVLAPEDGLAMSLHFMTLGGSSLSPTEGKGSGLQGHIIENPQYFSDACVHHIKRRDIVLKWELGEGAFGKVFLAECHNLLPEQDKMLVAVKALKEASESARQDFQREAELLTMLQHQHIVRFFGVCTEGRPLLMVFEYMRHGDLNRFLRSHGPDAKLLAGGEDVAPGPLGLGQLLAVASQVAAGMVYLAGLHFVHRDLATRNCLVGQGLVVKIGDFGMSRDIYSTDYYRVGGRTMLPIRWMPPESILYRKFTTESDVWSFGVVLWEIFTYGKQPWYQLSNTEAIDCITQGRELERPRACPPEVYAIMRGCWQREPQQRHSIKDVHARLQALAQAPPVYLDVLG

Row | EC50, SHC1 recruitment assay [1] [nM] | Fold-increase, SHC1 recruitment assay [2] [fold] | Fold-increase, SHC1 recruitment assay [1] [fold] | Fold-increase, SHC1 recruitment assay [3] [fold] | Substance
1 | 1.59 | – | – | – | NGF (R&D 256GF) (ligand)
2 | – | 1.1 | 1.1 | 1 | hIgG control antibody
